For the experiment, the target named is Full length native cardiac myosin II from rabbit heart ventricle (rabbit) (UniProt P04461). As to the kind of experiment: optical trapping.

The values that follow come from doi:10.1101/2022.03.10.483824.

For “Biotinylated actin filament (chicken G actin polymerised with biotinylated G actin) (from UniProt P68139 1-377) (natural protein)”, the maximum AM detachment rate (kcat, at saturating ATP) stood at 88.2 s⁻¹.
